From patent publication US7498127 (dated 2009)
One block for each binder: values may come before it.

Tests used:
[1] = molecular target: T1, GST binding HB-EGF remaining fragment (UniProt P08515 1-218 = GST; Q99075 185-208); test: GST pull-down, anti-FLAG immunoblot
T1 construct: also called remaining fragments of HB-EGF
Description: Test Method (1) In order to specify a region of PLZF protein that interacts with a remaining fragment, GST pull-down assay was performed.
(2) GST, GST binding HB-LGF remaining fragments that were expressed and isolated with *E. coli* BL21 strain according to the GST pull-down assay standard protocol were used. The fragments were bound to Glutathione Sepharose beads, and then cell lysates containing various FLAG-tagged PLZF protein derivatives were incubated with 20 µl of the beads at 4° C. for two hours. After washing with water, the bound protein was analyzed by immunoblotting using anti-FLAG antibody (referring to the peptide sold under the trademark FLAG by Sigma Aldrich Co.).

[2] = molecular target: T1, GST binding HB-EGF remaining fragment; test: GST pull-down, same method as Test Example 1

T1 sequence (P08515 1-218, tags or fused parts left off): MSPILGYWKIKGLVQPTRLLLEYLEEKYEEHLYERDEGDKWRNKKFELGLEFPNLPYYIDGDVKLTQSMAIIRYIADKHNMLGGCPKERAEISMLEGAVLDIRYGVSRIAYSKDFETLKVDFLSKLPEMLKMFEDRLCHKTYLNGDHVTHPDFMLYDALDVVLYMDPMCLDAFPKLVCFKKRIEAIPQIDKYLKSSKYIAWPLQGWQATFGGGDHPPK

binding result [1]: no binding
B1: PLZF protein derivative consisting only of the BTB region (other, UniProt Q05516 1-132, looked up)
chain: MDLTKMGMIQLQNPSHPTGLLCKANQMRLAGTLCDVVIMVDSQEFHAHRTVLACTSKMFEILFHRNSQHYTLDFLSPKTFQQILEYAYTATLQAKAEDLDDLLYAAEILEIEYLEEQCLKMLETIQASDDND
notes: domain: BTB region; also called FLAG-tagged PLZF protein derivative 6); not shown: FLAG synthetic octapeptide tag (Sigma-Aldrich)

binding result [2]: no binding
B2: Bcl-6 protein derivative consisting only of a region of Zn1 to Zn4 (other, UniProt P41182 518-624, looked up, not shown: small tags and cut ends)
chain: FFCNECDCRFSEEASLKRHTLQTHSDKPYKCDRCQASFRYKGNLASHKTVHTGEKPYRCNICGAQFNRPANLKTHTRIHSGEKPYKCETCGARFVQVAHLRAHVLIH
notes: domain: Zn1 to Zn4; also called Bcl-6 protein derivative 8)

binding result [1]: no binding
B3: PLZF protein derivative consisting only of a region of Zn6 to Zn7 (other, UniProt Q05516 546-596, looked up)
chain: YECEFCGSCFRDESTLKSHKRIHTGEKPYECNGCGKKFSLKHQLETHYRVH
notes: domain: Zn6 to Zn7; also called FLAG-tagged PLZF protein derivative 7); not shown: FLAG synthetic octapeptide tag (Sigma-Aldrich)
